Test results published in US20150030609A1, “DIAGNOSIS AND TREATMENT OF TRAUMATIC BRAIN INJURY” (UNIVERSITY OF SOUTH FLORIDA, priority 2011, published 2015).
“Also recorded” adds a separate entry of the source.

Key:
[1] = test system: primary neuronal cultures; experiment: LDH assay of cell death in primary neuronal cultures exposed to normoxia or OGD with recombinant CCL20; type: cell-based, rat; settings: 200 ng recombinant CCL20, 24 h
Procedure: Cortices from E18 rat embryos were dissociated with a solution of 0.25% trypsin/2.21 mM EDTA for 10 min at 37° C. The solution was triturated to obtain a uniform single cell suspension. After centrifugation, the supernatant was aspirated off and the cells were re-suspended in DMEM (Mediatech, Mannasas, Va.). Trypan blue exclusion was used to count viable cells and 3×10^5 cells in a final volume of 1 mL were seeded on 24 well poly-L-lysine treated culture plates. After 24 h, the medium was changed to neurobasal complete (neurobasal medium (Invitrogen), B-27 (Invitrogen), 0.05 mM L-glutamine (Mediatech) and cells were cultured for 7 days. Cells were used for oxygen glucose deprivation (OGD) experiments following one medium change, as determined by experimental grouping.
Primary cells previously seeded onto glass coverslips were randomly assigned to one of five conditions: OGD (DMEM without glucose)+vehicle, OGD+CCL20 (200 ng; Rad Systems, Minneapolis, Minn.), normoxia (DMEM with glucose) only, normoxia+vehicle, or normoxia+CCL20. […] The medium from each well was collected, clarified by centrifugation, and lactate dehydrogenase (LDH) analyzed immediately.
Cell death in culture was determined using the lactate dehydrogenase (LDH) assay (Takara Bio, Inc., Madison, Wis.). […] Plates were incubated for 30 min at 25° C. and absorbances were read on a microplate reader at a 548 nm wavelength. […]

[2] = test system: primary oligodendrocyte (OL) cultures; experiment: LDH assay of cell death in primary oligodendrocyte cultures exposed to normoxia or OGD with recombinant CCL20; type: cell-based, rat
Procedure: Mixed glial cultures were prepared from postnatal day 2 rats and oligodendrocytes (OL) cultures were purified using the shaking and differential adherence method as previously described (26). Cell preparations were seeded (1.5×10^7) into flasks, OLs were purified from these preparations after 8 DIV and plated onto glass poly-l-lysine-treated coverslips. Following a 7 day proliferation period, the PDGF-AA was withdrawn for 5 days to induce OL differentiation into the mature phenotype. Experiments were conducted within three weeks.
Primary cells previously seeded onto glass coverslips were randomly assigned to one of five conditions: OGD (DMEM without glucose)+vehicle, OGD+CCL20 (200 ng; Rad Systems, Minneapolis, Minn.), normoxia (DMEM with glucose) only, normoxia+vehicle, or normoxia+CCL20. Cells undergoing OGD were placed in an airtight hypoxic chamber. The chamber was then flushed with hypoxic gas (95% N2, 4% CO2, 1% O2; Airgas, Tampa, Fla.) for 15 min and […] for the duration of exposure. Normoxic cells were maintained in a standard tissue culture incubator. Cultures were subjected to OGD or normoxia for 24 h at 37° C. The medium from each well was collected, clarified by centrifugation, and lactate dehydrogenase (LDH) analyzed immediately.
Cell death in culture was determined using the lactate dehydrogenase (LDH) assay (Takara Bio, Inc., Madison, Wis.). Briefly, 100 μl of tissue culture medium from each experimental group was added to a 96-well plate and 100 μl of LDH reagent was added to each well. Plates were incubated for 30 min at 25° C. and absorbances were read on a microplate reader at a 548 nm wavelength. The absorbance of medium only wells was subtracted from the total absorbance of each experimental treatment group to control for background LDH activity.
Briefly, rat primary neurons or OLs were exposed to normoxia or OGD in the presence of 200 ng recombinant CCL20 or vehicle. Following the exposure, culture medium was collected and the LDH assay was performed to assess cellular death.

Q: Which “LDH release / neuronal viability” value ([1]; normoxia) does the source give for “CCL20: recombinant CC chemokine ligand 20 (CCL20, MIP-3α), purchased chemokine applied at 200 ng to cultured cells” here?
A: The value was “did not affect neuronal viability; also recorded: had no effect”.

Q: What about the “LDH release / cell death in neurons” value ([1]; oxygen glucose deprivation (OGD), relative to OGD alone) of the same substance?
A: Its value is “significantly increased; also recorded: increased lactate dehydrogenase (LDH) release”.

Q: And the “LDH release / cellular toxicity in OL cultures” value ([2]; normoxia, 200 ng recombinant CCL20, 24 h, vs normoxia without CCL20)?
A: The value was “elicited toxicity to OLs; also recorded: increased LDH release”.

Q: And the “LDH release / cell death in OL cultures” value ([2]; oxygen glucose deprivation (OGD), 200 ng recombinant CCL20, 24 h, relative to OGD alone)?
A: Its value is “significantly increased; also recorded: further enhanced OGD-induced cellular toxicity”.

Q: And the “toxicity to cultured oligodendrocytes” value ([2]; summary statement, conditions not given)?
A: The value was “toxic to cultured oligodendrocytes”.
